The target of the assay is HLA-A2 (Homo sapiens).

Turning to AIIRILQQL (modifications not checked) […], the IC50 (commonly the concentration that inhibits the measured activity by half) turned out to be 385 nM.

The values are drawn from patent US20180148493A1.
